Assay results taken from paper doi:10.1101/2025.05.01.651538.

Molecular target: wild-type unmodified 147bp nucleosome (nucleosome core particle, human histones)
Assay: EMSA
Conditions: chain shown with the change; 0-32 µM KDM5A^MutR titrated against 147bp nucleosome

Kd: 14 µM
B1: KDM5A^CAT (KDM5A 1–801, minimal catalytically active construct), P29375 R210A; R217A; R219A; R220A; R232A; R264A; R265A; R266A; R271A; R280A; R282A (protein)
chain: MAGVGPGGYAAEFVPPPECPVFEPSWEEFTDPLSFIGRIRPLAEKTGICKIRPPKDWQPPFACEVKSFRFTPRVQRLNELEAMTRVRLDFLDQLAKFWELQGSTLKIPVVERKILDLYALSKIVASKGGFEMVTKEKKWSKVGSRLGYLPGKGTGSLLKSHYERILYPYELFQSGVSLMGVQMPNLDLKEKVEPEVLSTDTQTSPEPGTAMNILPKATAAVKTQSESGDVSANTELKKLQIFGAGPKVVGLAMGTKDKEDEVTAAAKVTNASDAFNMQMAQAKGTLSVNFVDLYVCMFCGRGNNEDKLLLCDGCDDSYHTFCLIPPLPDVPKGDWRCPKCVAEECSKPREAFGFEQAVREYTLQSFGEMADNFKSDYFNMPVHMVPTELVEKEFWRLVSSIEEDVIVEYGADISSKDFGSGFPVKDGRRKILPEEEEYALSGWNLNNMPVLEQSVLAHINVDISGMKVPWLYVGMCFSSFCWHIEDHWSYSINYLHWGEPKTWYGVPSHAAEQLEEVMRELAPELFESQPDLLHQLVTIMNPNVLMEHGVPVYRTNQCAGEFVVTFPRAYHSGFNQGYNFAEAVNFCTADWLPIGRQCVNHYRRLRRHCVFSHEELIFKMAADPECLDVGLAAMVCKELTLMTEEETRLRESVVQMGVLMSEEEVFELVPDDERQCSACRTTCFLSALTCSCNPERLVCLYHPTDLCPCPMQKKCLRYRYPLEDLPSLLYGVKVRAQSYDTWVSRVTEALSANFNHKKDLIELRVMLEDAEDRKYPENDLFRKLRDAVKEAETCASVAQLL
